# Reference: the RNAGym collection of RNA variant scans (doi:10.1073/pnas.2313332121)
# B1: TPR t1 (parent)
# chain: GACCAAUCUGCCCUCAGAGCUCGAGAACAUCUUCGGAUGCAGAGGAGGCAGGCUUCGGUGGCGCGAUAGCGCCAACGUCCUCAACCUCCAAUGCAUCCCACCACAUGAUGAUGCCUGAAGAGCCUUGGUUUUUUG
# Variants of: B1
# Test: polymerase ribozyme fitness, log enrichment relative to wild type (log ratio); higher = more active; in vitro selection for triplet polymerase activity
# How it was run: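 Libraries of mutants in each subunit of a heterodimeric triplet polymerase ribozyme were generated by PCR and transcribed. In triplicate, each went through one in vitro selection round: annealing with biotinylated primer, partner subunit and triplets; frozen incubation at −7 °C; gel excision of extended constructs; streptavidin-bead capture; RT-PCR. Fitness, taken from Illumina sequencing of input and output libraries, is the logarithm of a genotype's enrichment over wild-type enrichment, averaged across replicates with inverse-variance weights. The logarithm is base 2, and genotypes needed ≥10 input reads and ≥1 read per output to be kept.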
row,Variant,polymerase ribozyme fitness (log ratio)
1,GGCCAAUCUGCCCUCAGAGCUCGAGAACAUCUUCGGAUGCUGAGGUGGCAGGCUUCGGUGGCGCGAUAGCGCCAACGUCCUCAACCUCCAAUGCAUCCCACCACAUGAUGAUGCCUGAAGAGCCUUGGUUUUUUG [A2G A41U A46U],-3.37
2,GACCAAUCUGCCCUCAGAGCUCGAGAACAUCUUCGGAUGCUGAGGAGGCAGGGUUCGAUGGCGCGAUAGUGCCAACGUCCUCAACCUCCAAUGCAUCCCACCACAUGAUCAUGCCUGAAGAGCCUUGGUUAUUUG [A41U C53G G58A C70U G110C U131A],-6.81
3,GACCAAUCUGCCCUCAGAGCUCGAGAACAUCUUCGGAUGCAGAGGAGGAAGACUUCGGUGGCGCGAUAGCGCCAACGUCCUCAACCUCCAAUGCAUCCCACCACAUGAUGAUGCCUGAAGAGCCUUGGUUUUUUG [C49A G52A],-0.855
4,GACCAAUCUGCCCUCAGCGCUCGAGAACAUCUUCGGAUGCAGAGGUGGCAGGCUUCGGUGGCGCGAUAGCACCAACGUCCUCAGCCUCCAAUGCAUCCCACCACAUGAUGAUGCCUCAAGAGCCUUGGUUUUUUG [A18C A46U G71A A84G G117C],-7.1
5,GACCAAUCAGCCCUCAGAGCUCGAGAACAUCUUCGGAUGCAGAGGAGGCAGGCUUCGGUGGCGCGAUAGCGCCAACGUCCUCAACCUCCAAUGCAUCGCACCACAUGAUGAUGCCUGAAGAGCCUUGGUUUUUUG [U9A C98G],-5.74
6,GACCAAUCUGCCCUCAGAGCUCGAGAACAUCUUCGGAUGCAAAGGAGGCAGGCUUCGGUGGCGCGAUACCGCCAACGUCCUCAACCUCCAAUGCAUCCCACCACAUGAUGAUGCCUGAAGAGCCUUGGUUUUUUG [G42A G69C],-3.78
7,GACCAAUCUGCCCUCAGAGCUCGAGAACAUCUUCGGAUGCAGAGGGGGCAGGCUUCGGUGGCGCGAUACCGCCAACGUCCUCAACCUCCAAUGCAUCCCACCACAUGAUGAUGCCUGAAGAGCCUUGGUUUUUUG [A46G G69C],-2.16
8,GACCAAUCUGCCCUCAGAGCUCGAGAACAUCUUCGGAUGCAGAGGAGGCAGGCUUCGGUGGCGCGAUAGCGCCUACGUCCUCAACCGCCAAUGCAUCCCACCACAGGAUGAUGCCUGAAGUGCCUUGGUUUUUUG [A74U U87G U106G A121U],-0.122
9,GACCAAUCUGGCCUCAGAGCUCGAGAACAUCUUCGGAUGCAGAGGAGGGAGGCUUCGGUGGCGCGAUAGUGCCAACGUCCUCAACCUGCAAUGCAUCCCACCACAUGAUGUUGCCUGAAGAGCCUUCGUUUUUUG [C11G C49G C70U C88G A111U G127C],-5.65
10,GACCAAUCUGCCCUCAGAGCUCGAGAACAUCUUCGGAUGCAGAGGAGGCAGGCAUCGGUGGAGCGAUAGCGCCAACGUCCUCAACCUCCAAUGCCUCCCACCACAUGAUGAUGCCUGAAGAGCCUUGGUUUUUUG [U54A C62A A95C],-2.03
11,GACCAAUCUGCCCUCAGAGCUCGAGAACAUCUUCGGAUGCAGAGGAGGCAGGCUUCGGUGGCGCGAUAGCGCAAACGUCCUCAACCUCCAAUGCGUCCCACCAAAUGAUUAUGCCUGAAGAGCCUUGGUUUUUUG [C73A A95G C104A G110U],-3.5
12,GACCAAUCUGACCUCAGAGCUCGAGAACAUCUUCGGAUGCAGAGGAGGCAGGCAUCGGUGGCGCGAUAGCGCCAACGUCCUCAACCUCCAAUGCAUCCCACCACAUGAUGAUGCCUGAAGAGACUUGGUUUUUUG [C11A U54A C123A],0.93
13,GACCAAUCUGCCCUCAGAGCUCGAGAACAUCUUCGGAUGCAGAGGAGGCAGGCUUCGGUGGCGCGAUAGCGCCAACGUCCUCAACCUCCAAUGCAUCCCACCACAUGAUCAUGCCUGAAGAGCCUUGGUUUAUUG [G110C U132A],-3.46
14,GACCAAUAUGCCCUCAGAGCUCGAGAACAUCUUCGGAUGCAGAGGAGGCAGGGUUCGGUGGCGCGAUAGUGCCAACGUCCUCAACCUCCAAUGCAUUCCACCACAUGAUGAAGCCUGAAGAGCUUUGGUUUUUUG [C8A C53G C70U C97U U112A C124U],0.47
15,GACCAAUCUGCCCUCAGAGCUCGAGAACCUCUUCGGAUGCAGAGGAGGCAGUCUUCGGUGGCCCGAUAGCGCCAACGUCCUCAACCUCCAAUGCAUCCCACCACAUGAUGAUGCCUGAAGAGCCUUGGUUUUUUG [A29C G52U G63C],-2.49
16,GACCAAUCUGCCCUCAGAGCUCGAGAACAUCUUCGGAUGCAGAGGAGGAAGGCUUCGGUGGCUCGAUAGCGCCAACGUCCUCAACCUCCAAUGCAUGCCACCACAUGAUGAUGCCUGAAGAGCCUUGGUUUAUUG [C49A G63U C97G U132A],-6.24
17,GACCAAUCUGCCCUCAGAGCUCGAGAACAUCUUCGGAUGCAGAGGAAGCAGGCUUCGGUGGCGCGAUAGCGCCAACGCCCUCAACCUCCAAUGCAUCCCACCACAUGAUGAUUCCUGAAGAGCCUUGGUUUUUUG [G47A U78C G113U],-4.27
18,GACCAAUCUGCCCUCAGAGCUCGAGAAUAUCUUCGGAUGCAGAGGAGGUAGGCUUCGGUUGCGCGAUAGCGCCAGCGUCCUCAACCUCCAAUGCAUCCCACCACAUGAUGAUGCCUGAAGAGCCUUGGUUUUUUG [C28U C49U G60U A75G],-3.76
19,GAUCAAUCUGCCCUCAGAGCUCAAGAACAUCUUCGGAUGCAGAGGAGGCAGGCUUCGGUGGCGCGAUAGCGCCAACGUCCUCAACCUCCAAUGCAUCCCACCACAUGAUGAUGCCUGAAGAGCCUUGGUUUUUUG [C3U G23A],-5.54
20,GACCAAUCUGCCCUCAGAGCUCGAGAACAUCUUCGGAUGCAGAUGAGUCAGGCUUCGGUGGCGCGAUAGCGCCAACGUCCUCAACCUCCAAUGCAUCCCACCACAUGAUGAUGACUGAAGAGCCUUGGUUUUUUG [G44U G48U C114A],-2.93
21,GACCAAUCUGUCCUCAGAGCUUGAGAACAUCUUCGGAUGGAGAGGAGGCAGGCUUCGGUGGCGCGAUAGCGCCAACGUCCUCAACCUCCAAUGCAUCCCACCACAUGAUGAUGCCUGAAGAGCCUUGGUUUUUUG [C11U C22U C40G],-4.75

row,Variant,polymerase ribozyme fitness (log ratio)
1,GACCAAUCUGCCCUCAGAGCUCGAGAACAUCUUCGGAUGCAUAGGUGGCAGGCUUCGGUGGCGCGAUAGCGCCAACGUCCUCAACCUCCAAUGCAUCCCACCACAUGAUGAUGCCUGAAGAGCCUUGGUUUUUUG [G42U A46U],-1.99
2,GACCAAUCUGCCCUCAGAGCUCGAGAACAUCUUCGGAUGCAGAGGAGGCAGGCUUCGGUGGCGCGAUAGCGCCAACGUCCUCAACCUCCAAUGCAUCCCACCACAUGAUGAUGCUUGAAGAGCUUUGGUUUUUUG [C115U C124U],-1.17
3,GACCAAUCUGCCCUCAGUGCUCGAGAACAUCUUCGGAUGCAGAGGAGGCAGGCUUCGGUAGCGCGAUAGCGCCAACGUCCUCAACCUCCCAUGCAUCCCACCACAUGAUGAUGCCUGAAGAGCCUUGGUUUUUUG [A18U G60A A90C],-1.79
4,GACCAAUCUGCCCUCAGAGCUCGAGGACAUCUUCGGAUGCAGAGGAGGCAGGCUUGGGUGGCGCGAUAGCGCCAACGUCCUCAACCUCCAAUGCAUUCAACCACAUGAUGGUGCCUGAAGAGCCUUGGUUUUUUG [A26G C56G C97U C99A A111G],-6.74
5,GACCAAUCUUCCCUCAGAGCUCGAGAACAUCUUCGGAUGCAGAGGAGGCAGGCUUCGGUGGCGUGAUAGCGCCAACGUCCUCAACCUCCAAUGCAUCCCACCACAUGAUGAUCCCUGAAGAGCCUUGGUUUUUUG [G10U C64U G113C],-1.87
6,GACCAAUCAGCCCUCAGAGCUCGAGAACAUCUUCGGAUGCAGAGGAGGCAGGCUUCGGUGGCGCGAUAGCGCCAACGUCCUCAACCUCCAAUACAUCCCACCACACGAUGAUGCCUGAAGAGCCUUGGUUUUUUG [U9A G93A U106C],-0.115
7,GACCAAUCUGCCCUCAGAGCUCGAGAACAUCUUCGGAUGCAGAGGAGGCAGGCUUCGGUGGCGCGAUAGCGCCAACGUCCUCAACCUCCAAUGCAUGCCACCACAUGAUGAUGCCUGAAGAGCCUUGGUGUUUUG [C97G U130G],-4.67
8,GACCACUCUGCCCUCAGAGCUCGAGAACAUCUUCGGAUGCAGAGGAGGCAGGCUUCCGUGGCGCGAUAGUGCCAACGUCCUCAACCUCCAAUGCAUCCCACCACAUGAUGAUGCCUGAAGAGCCUUGGUUUUUUG [A6C G57C C70U],-0.399
9,GACCAAUCUGCCCUCAGAGCUCGAGAACAUCUUCGGAUACAGAGGAGGCAGGCUUCGGUGGCGCGAUAGCGCCAACGUCCUCAACCUCCAAUGCAUCCCACCACAUGAUGAUCCCUGAUGAGCCUUGGUUUUUUG [G39A G113C A119U],-3.54
10,GACCAAUCUGCCCUCAGAGCGCGAGAACAUCUUCGGAUGCAGAGGAAGCAGGCUUCGGUGGCGCGAUAGCGCCAACGUCCUCAACCUCCAAUGCAUCCCACCACAUGAUGAUGCCUGAAGAGCCUUGGUUUUUUG [U21G G47A],-0.934
11,GACCAAUCUGGCCUCAGAGCUCGAGAACAUCUUCGAAUGCAGAGGAGGCAGGCUUCGGUGGCGCGAUAGCGCCAACGUCCUCAACCUCCAAUGCAUCCCACCACAUGAUGAUGCCUGAAGAGCCUUAGUUUUUUG [C11G G36A G127A],-2.95
12,GAACAAUCUGCCCUCAGAGCUCGAGAACAUCUUCGGAUACAGAGGAGGCAGGCUUCGGUGGCGCGAUAGCGCCAACGUCCUCAACCUCCAAUGCAUCCCACCAUAUGAUGAUGCUUGAAGAGCCUUGGUUUUUUG [C3A G39A C104U C115U],-2.58
13,GACCAAUCUGCCCUCAGAGCUCGAGAACAUCUUCGGAUGCAGAGGAGGCAGGCUUCGGUAGCGCGAUAGCGCCAACGACCUCAUCCUCCAAUACAUCCCACAACAUGAUGAUGCCUGAAGAGCCUUGGUUUUUUG [G60A U78A A84U G93A C102A],-5
14,GACCAAUCUGCCCUCAGAGCUCGAGAACAUCUUCGGAUGCAGAGGAGGCAGGCUUCGGUGGCGCGAUAGCGACAACGUCCUCAAUCUCCAAUGCAUCCCACCAUAUGAUGAUGCCUGAAGAGCCUUGGUUUUUUG [C72A C85U C104U],0.563
15,GUCCAAUCUGCCCUCAGAGCUCGAGAACAUCUUCGGAUGCAGAGGAGGCAGGCUUCGGUGGCGCGAUAGCGCCAACGUCCUCAACCUCCAAUGCAUCCCACCACAUGAUGAUGCCUGAAGAGACUUGGUUUUUUG [A2U C123A],-1.63
16,GACUAAUCUGCCCUCAGAGCUCGAGAACAUCUUCGGAUGCAGAGGAGGCAGGCUUCGGUGGCGCGAUAGCGCCAUCGUCCUCAACCUCCAAUGCCACCCACCACAUGAUGAUGCCUGAAAAGCCUUGGUUUUUUG [C4U A75U A95C U96A G120A],-1.94
17,GACCAAUCUGCCCUCAGAGCUCGAGAACAUCCUCGGAUGCAGAGGAGGCAGGCUUCGGUGGCGCGAUAGCGCCAACGCCCUCAACCUCCAAUGCAUCCCCCCACAUGAUGAUGCCUGAAGAGCCUUGGUUUUUUG [U32C U78C A100C],-2.28
18,GACCAAUCUGCCCUCAGAGUUCGAGAACAUCUUCGGAUGCAGAAGAGGCAGGCUUCGGUGGCGUGAUAGCGCCAACGUCCUCAACCUCCAAUGCAUCCCACCACAUGAUGAUGCCUGAAGAGCCUUGGUUUUUUG [C20U G44A C64U],-2.89
19,GACCAAUCUCCCCUCAGAGCUCGAGAACAUCUUCGGAUGCAGAGGAGGCAGGCUUCGGUGGCGCGAUAGCGCCAACGUCCUCAACCUCCAAUGCAUCCCACCACAUGAUGAUGCCUAAAGAGCCUUGGUUUUUUG [G10C G117A],-1.75
20,GACCAAUCUGCCGUCAGAGCUCGAGAACAUCUUCGGAUGCAGAGGAGGCAGGCUUCGGUGGCGCGAUAGCGCCAACGUCCUCAACCUCCAAUGCAUCCCACCACAUGAUGAUGCCUGAAGAGCAUUGUUUUUUUG [C13G C124A G128U],-0.0372
21,GACCAAUCUGCCCUCAGAGCUCGAGAACAUCUUCGGAUACAGAGGAGACAGGCUUCGGUGGCGCGAUAGCGCCAACGUCCUCAACCUACAAUGCAUCCCACCACAUGAUGAUGCCUGAAGAGCCUUGGUUUUUUG [G39A G48A C88A],-1.33
